# Data as given in patent publication US20050053993A1, “Uses of an endothelial cell receptor” (priority 2002, published 2005).
# Legend:
# [1] = test system: endothelial cell migration; experiment: Endothelial cell migration induced by various angiogenesis inducers (FIG. 9A); format: cell-based, human; details: aFGF, bFGF, IL-8, PDGF, TGF-β and VEGF; rK5 400 pM (100 pM for VEGF, PDGF)
# Protocol: FIG. 9A is a graph showing inhibition by rK5 of endothelial cell migration induced by a variety of angiogenesis inducers including aFGF, bFGF, IL-8, PDGF, TGF-β, VEGF, HGF and […] at concentrations of 50 ng/mL, 15 ng/mL, 40 ng/mL, 1 pg/mL, 100 pg/mL 40 ng/mL and 250 ng/mL respectively. The concentration of rK5 used was 400 pM except for VEGF (rK5=100 pM), PDGF (rK5=100 pM) and HGF (rK5=10 pM). Membranes were covered, fixed and stained and the number of cells that had migrated to the upper chamber per 10 high power field counted. Background migration to DME+0.1% BSA was subtracted and the data reported as the number of cells migrated per 10 high power fields (100×). […]
# Endothelial cell migration assays: The effect of rK5 on endothelial cell migration was determined by two different methods. […] After 4 h, migrated cells were measured by fluorescence (Frevert C W, Wong V A, Goodman R B, Goodwin R, Martin T R. Rapid fluorescence-based measurement of neutrophil migration in vitro. J Immunol Methods. 1998 Apr. 1;213(1):41-52). […] Growth factors were used, where indicated, at concentrations determined in preliminary experiments to give equivalent migration responses of about 100 cells migrated/high powered field (400×). […] Membranes were recovered, fixed and stained and the number of cells that had migrated to the upper chamber per 10 high power fields counted. […]
# P388 = experiment: Tumor cell proliferation, P388; format: cell-based; details: P388, 72 hours
# Protocol: (§1) Cell Proliferation Assay. The effect of rK5 and rK5 peptides on endothelial cells were assessed using a proliferation assay with 1% BSA and 3 ng/ml bFGF in serum-free media. Relative cell numbers in each well of a 96 well microplate after incubation for 72 hours in the absence or presence of inhibitors were determined by using the AQueous cell proliferation assay (Promega, San Luis Obispo, Calif.). For all other cell lines tested for proliferation, minimal growth media was used (Cao, Y., Ji, R., Davidson, D., Schaller, J., Marti, D., Sohndel, S., McCance, S., O'Reilly, M., Llinas, M., and Folkman, J. Kringle domains of human angiostatin. Characterization of the anti-proliferative activity on endothelial cells. (1996) J. Biol. Chem. 271, 29461-29467). Results are presented as the percent inhibition of control cell (bFGF-induced) proliferation.
# [2] = test system: tumor or primary cell proliferation; experiment: Tumor or primary cell proliferation; format: cell-based; details: at concentrations as high as 100 μM
# Protocol: as §1
# GRP78 (bovine brain) = biological target: T1, GRP78 (bovine brain) (Bos taurus, UniProt Q0VCX2); experiment: Ultracentrifugation binding of I125rK5(dog) with GRP78; details: 1 nM I125rK5(dog) + 1.5 nM GRP78; peptides 100 nM, rK5 1 nM
# T1 construct: from tissue; host or cells: bovine brain
# T1 sequence (Q0VCX2 20-655): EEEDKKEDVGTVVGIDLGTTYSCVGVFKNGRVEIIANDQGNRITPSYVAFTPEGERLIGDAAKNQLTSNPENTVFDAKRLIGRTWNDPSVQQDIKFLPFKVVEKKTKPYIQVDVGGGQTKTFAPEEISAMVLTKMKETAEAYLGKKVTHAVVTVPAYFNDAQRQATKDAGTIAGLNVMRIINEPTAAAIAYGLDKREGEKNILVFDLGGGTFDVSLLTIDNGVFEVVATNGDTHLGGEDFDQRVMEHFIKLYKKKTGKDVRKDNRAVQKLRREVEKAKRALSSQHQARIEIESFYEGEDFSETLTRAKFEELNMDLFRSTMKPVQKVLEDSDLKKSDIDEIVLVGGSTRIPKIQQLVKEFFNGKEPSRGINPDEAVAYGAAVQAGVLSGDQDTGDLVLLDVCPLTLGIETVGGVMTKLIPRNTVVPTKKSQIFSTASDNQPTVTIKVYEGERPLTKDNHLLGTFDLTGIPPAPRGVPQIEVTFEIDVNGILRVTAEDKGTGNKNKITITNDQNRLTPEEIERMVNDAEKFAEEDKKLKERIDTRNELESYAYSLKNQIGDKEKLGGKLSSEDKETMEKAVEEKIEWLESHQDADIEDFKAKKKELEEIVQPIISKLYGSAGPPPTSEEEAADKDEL
# Protocol: Ultra centrifugation with 50,000 MW cut off filters was used with iodinated recombinant dog K5 (I^125rKS(dog)) and GRP78 (bovine brain). The GRP78 and I^125rK5 (dog) were incubated for 1 hour at room temperature. The solution was then transferred to ultracentrifuges and spun at 10,000×g for 2 min. The top chamber contained GRP78 (mw 78,000) and I^125rK5 (dog) that bound. The top and bottom solutions were counted for I125. Column A: 1 nM I^125rK5(dog). Column B: 1 nM I^125rK5 (dog)+1.5 nM GRP78. Column C: 1 nM I^125rK5(dog)+1.5 nM GRP78+100 nM N-terminal K5 peptide, LLPDVETPSEED. Column D: 1 nM I^125rK5(dog)+1.5 nM GRP78±100 nM active site K5 peptide PRKLYDY. Column E: 1 nM I^125rK5(dog)+1.5 nM GRP78+1 nM rK5 (unlabeled). The GRP78 bound to the labeled rK5 causing its retention on the top of the filter.
molecule,measurement,setting,value
"rK5: recombinant kringle 5 fragment of human plasminogen (residues 450-543), expressed in E. coli or yeast (protein) LLPDVETPSEEDCMFGNGKGYRGKRATTVTGTPCQDWAAQEPHRHSIFTPETNPRAGLEKNYCRNPDGDVGGPWCYTTNPRKLYDYCDVPQCAA",inhibition of endothelial cell migration induced by inducers of angiogenesis,[1],inhibited
same,IC50 values for cell proliferation,P388,>100 µg/mL
same,inhibition of tumor or primary cell proliferation,[2],did not cause inhibition
same,inhibition of I125rK5(dog) binding to GRP78,GRP78 (bovine brain),inhibited
